Measured values as given in US20220135701A1 (Genentech, published 2022).
One block for each binder: values may come before it.

Legend:
[1] = molecular target: T1, mouse MerTK (mouse, UniProt Q60805 23-496); assay: SPR BIAcore T200, Ab captured, 25C
T1 construct: also called MuMER
T1 sequence (looked up): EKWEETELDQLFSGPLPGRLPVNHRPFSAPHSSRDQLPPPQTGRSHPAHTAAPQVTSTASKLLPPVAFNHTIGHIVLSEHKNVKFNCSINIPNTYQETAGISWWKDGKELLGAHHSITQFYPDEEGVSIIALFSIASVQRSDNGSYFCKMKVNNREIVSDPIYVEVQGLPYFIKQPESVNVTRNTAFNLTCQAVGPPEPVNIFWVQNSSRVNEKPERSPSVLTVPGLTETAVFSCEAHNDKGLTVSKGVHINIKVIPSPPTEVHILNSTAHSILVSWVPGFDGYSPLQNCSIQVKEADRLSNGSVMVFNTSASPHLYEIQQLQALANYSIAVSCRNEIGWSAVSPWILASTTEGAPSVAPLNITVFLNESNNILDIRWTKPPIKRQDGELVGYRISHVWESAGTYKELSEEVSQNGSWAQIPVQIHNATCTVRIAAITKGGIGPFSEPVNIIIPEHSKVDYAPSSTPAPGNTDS
Experimental: (§1) All binding affinity determinations were obtained using Surface Plasmon Resonance (SPR) measurements from a BIAcore™-T200 instrument. Briefly, each rabbit or humanized antibody was captured to achieve approximately 100 RU (Response Units). Then, 3-fold serial dilutions of MerTK from various species (0.4 nM to 100 nM) diluted in HBS-EP buffer (0.01M HEPES pH 7.4, 0.15M NaCl, 3 mM EDTA and 0.05% v/v surfactant P20) was injected into the BIAcore™-T200 instrument at 25° C. or 37° C. with a flow rate of 30 μl/min. Association rates (kₒₙ) and dissociation rates (koff) were calculated using a simple one-to-one Langmuir binding model (BIAcore T200 evaluation software version 2.0). The equilibrium dissociation constant (KD) was calculated as the ratio koff/kₒₙ.

[2] = molecular target: T2, MuMER (E23-S496) (mouse, UniProt Q60805 23-496); assay: SPR BIAcore T200, Ab captured, 25C
T2 construct: range 23-496; also called mouse MerTK extracellular domain
T2 sequence (looked up): T1 sequence (looked up)
Experimental: (§2) Binding affinity determinations were obtained using Surface Plasmon Resonance (SRP) measurements from a BIAcore™-T200 instrument. Briefly, each rabbit antibody was captured to achieve approximately 100 RU (Response Units). Then, 3-fold serial dilutions of the various MerTK domains (0.4 nM to 100 nM) diluted in HBS-EP buffer (0.01M HEPES pH 7.4, 0.15M NaCl, 3 mM EDTA and 0.05% v/v surfactant P20) was injected into the BIAcore™-T200 instrument at 25° C. or 37° C. with a flow rate of 30 μl/min. Association rates (kₒₙ) and dissociation rates (koff) were calculated using a simple one-to-one Langmuir binding model (BIAcore T200 evaluation software version 2.0). The equilibrium dissociation constant (KD) was calculated as the ratio koff/kₒₙ.
(§3) Antibody epitope determination was assessed by BIAcore analysis for rabbit antibodies binding against both the human and mouse MerTK extracellular domain (HuMER R26-A499 and MuMER E23-S496), Ig1&2 domain, Ig1-only domain, and Ig2-only domain (TABLE 18). Human MerTK and its domains are shown in light gray, while mouse MerTK and its domains are shown in dark gray.

[3] = molecular target: T3, MuMER.Ig1&2 (A70-P279) (mouse, UniProt Q60805 70-279); assay: SPR BIAcore T200, Ab captured, 25C
T3 construct: range 70-279; also called mouse MerTK Ig-like 1&2 domains
T3 sequence (looked up): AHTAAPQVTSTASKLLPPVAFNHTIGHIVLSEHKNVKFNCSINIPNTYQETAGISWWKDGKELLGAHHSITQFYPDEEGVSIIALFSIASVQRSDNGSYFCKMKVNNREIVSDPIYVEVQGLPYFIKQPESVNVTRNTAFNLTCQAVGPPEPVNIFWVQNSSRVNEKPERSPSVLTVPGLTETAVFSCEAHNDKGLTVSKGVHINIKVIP
Experimental: as §2, §3

[4] = molecular target: T4, MuMER.Ig1 (A70-G190) (mouse, UniProt Q60805 70-190); assay: SPR BIAcore T200, Ab captured, 25C
T4 construct: range 70-190; also called mouse MerTK Ig-like 1 domain
T4 sequence (looked up): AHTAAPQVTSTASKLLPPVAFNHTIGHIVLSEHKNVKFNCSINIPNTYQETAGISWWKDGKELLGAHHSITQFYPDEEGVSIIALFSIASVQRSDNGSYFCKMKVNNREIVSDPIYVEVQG
Experimental: as §2, §3

[5] = molecular target: T5, cynomolgus monkey MerTK (cynomolgus monkey, UniProt A0A2K5V1H9 32-505); assay: SPR BIAcore T200, Ab captured, 25C
T5 construct: Soluble analyte in SPR; also called Cyno MerTK
T5 sequence: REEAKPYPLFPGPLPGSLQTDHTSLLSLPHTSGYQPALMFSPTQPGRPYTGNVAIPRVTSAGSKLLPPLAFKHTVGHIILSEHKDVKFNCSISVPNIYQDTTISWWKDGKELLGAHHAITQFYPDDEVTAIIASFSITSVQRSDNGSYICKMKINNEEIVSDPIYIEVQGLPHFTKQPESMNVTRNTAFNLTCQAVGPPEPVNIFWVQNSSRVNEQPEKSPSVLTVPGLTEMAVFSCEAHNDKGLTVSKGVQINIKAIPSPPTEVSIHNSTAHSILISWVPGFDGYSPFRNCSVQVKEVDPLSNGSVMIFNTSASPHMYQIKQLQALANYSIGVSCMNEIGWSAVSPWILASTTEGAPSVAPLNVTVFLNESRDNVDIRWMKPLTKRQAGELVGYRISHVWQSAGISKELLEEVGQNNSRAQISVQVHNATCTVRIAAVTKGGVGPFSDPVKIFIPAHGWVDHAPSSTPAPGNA
Experimental: as §1

[6] = molecular target: T6, human MerTK (human, UniProt Q12866 26-499); assay: SPR BIAcore T200, Ab captured, 25C
T6 construct: also called HuMER
T6 sequence: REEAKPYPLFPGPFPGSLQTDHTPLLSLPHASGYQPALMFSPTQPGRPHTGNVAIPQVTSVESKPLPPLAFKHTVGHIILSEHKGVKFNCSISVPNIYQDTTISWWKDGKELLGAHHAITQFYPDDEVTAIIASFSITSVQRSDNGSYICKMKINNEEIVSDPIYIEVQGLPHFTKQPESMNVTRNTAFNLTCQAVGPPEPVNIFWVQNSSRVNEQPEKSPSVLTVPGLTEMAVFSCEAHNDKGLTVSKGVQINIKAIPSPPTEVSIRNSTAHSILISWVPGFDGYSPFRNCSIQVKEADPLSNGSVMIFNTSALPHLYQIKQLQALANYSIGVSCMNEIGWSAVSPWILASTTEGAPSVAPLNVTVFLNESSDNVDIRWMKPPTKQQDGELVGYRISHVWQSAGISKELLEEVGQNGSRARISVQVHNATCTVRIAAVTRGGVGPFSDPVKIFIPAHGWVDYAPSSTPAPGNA
Experimental: as §1

[7] = molecular target: T7, HuMER.Ig1 (G76-G195) (human, UniProt Q12866 76-195); assay: SPR BIAcore T200, Ab captured, 25C
T7 construct: also called human MerTK Ig-like 1 domain
T7 sequence: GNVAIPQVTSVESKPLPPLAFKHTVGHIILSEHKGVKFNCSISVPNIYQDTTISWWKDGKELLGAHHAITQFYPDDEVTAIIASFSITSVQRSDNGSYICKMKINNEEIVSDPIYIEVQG
Experimental: as §2, §3

[8] = molecular target: T8, HuMER (R26-A499) (human, UniProt Q12866 26-499); assay: SPR BIAcore T200, Ab captured, 25C
T8 construct: Extracellular domain with both Ig-like and both fibronectin-like domains; also called human MerTK extracellular domain
T8 sequence: T6 sequence
Experimental: as §2, §3

[9] = molecular target: T9, HuMER.Ig1&2 (G76-P284) (human, UniProt Q12866 76-284); assay: SPR BIAcore T200, Ab captured, 25C
T9 construct: also called human MerTK Ig-like 1&2 domains
T9 sequence: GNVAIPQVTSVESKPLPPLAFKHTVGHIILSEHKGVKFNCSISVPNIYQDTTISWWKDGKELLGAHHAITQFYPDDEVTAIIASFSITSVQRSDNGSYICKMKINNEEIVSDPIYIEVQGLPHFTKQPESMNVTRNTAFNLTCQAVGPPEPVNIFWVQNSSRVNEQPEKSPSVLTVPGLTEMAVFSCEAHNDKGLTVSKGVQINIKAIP
Experimental: as §2, §3

[10] = molecular target: T5, cynomolgus monkey MerTK; assay: SPR BIAcore T200, Ab captured, 37C
Experimental: as §1

[11] = molecular target: T6, human MerTK; assay: SPR BIAcore T200, Ab captured, 37C
Experimental: as §1

- Kd [1]: 0.6 nM
- Kd [2]: 0.6 nM
- Kd [3]: 0.5 nM
- Kd [4]: 0.1 nM
B1: Rbt14C9 (antibody, V domains shown)
VH: QSVEESGGRLVTPGTPLTLTCTVSGIDLSANTMNWVRQAPGKGLEWIGIFTATGSTYYATWVNGRFTISKTSTTVDLKITSPTTEDTATYFCARSGSGSSSGAFNIWGPGTLVTVSL
VL: DPVLTQTPASVSEPVGGTVTIKCQASQSISSSLAWYQQKPGQPPKLLIYAASILASEISSRFKGSRSGTEFTLTISDLECADAATYYCQCTSYGSLFLGPFGGGTEVVVK
notes: Recombinant rabbit monoclonal antibody, Expi293, protein A purified

- Kd [5]: 4.3 nM
- Kd [1]: 1.7 nM
- Kd [6]: 2.3 nM
- Kd [2]: 1.7 nM
- Kd [7]: 0.5 nM
- Kd [8]: 2.3 nM
- Kd [9]: 21 nM
- Kd [3]: 1.9 nM
- Kd [4]: 0.2 nM
B2: Rbt18G7 (antibody, V domains shown)
VH: QSLEESGGRLVTPGTPLTLTCTVSGIDLSSYALGWVRQAPGKGLEYIGIISSTGTTYYATWAKGRFTISKTSSTTVDLKITGPTTEDTATYFCARGAYAGYVAFGPYYFHIWGPGTLVTISL
VL: DIVMTQTPASVEAAVGGTVTIKCQASQSISNFLAWYQQKPGQPPKVLIYAASHLASGVPSRFKGSGSGTQFTLTISDLECADAATYYCQSYFYSSTSIYNAFGGGTEVVVR
notes: as for B1

- Kd [5]: 14.3 nM
- Kd [1]: 4.1 nM
- Kd [6]: 31.3 nM
- Kd [2]: 4.1 nM
- Kd [7]: 39.8 nM
- Kd [8]: 31.3 nM
- Kd [3]: 3.4 nM
B3: Rbt11G11 (antibody, V domains shown)
VH: QELVESGGGLVQAGESLKLSCKASGIDFSSYGISWVRQAPGKGLEWIAYIYPGFGITNYAHSVKGRFTISSDNAQNTVFLQMPSLTASDTATYFCARDLDYTGGVVGYAYVTYYFTLWGPGTLVTVSS
VL: DPVLTQTPSSVEAAVGGTVTIKCQASESISSRLAWYQQKPGQPPKLLIYSASTLASGVSSRFKGSGSGTEFTLTISDLECADAATYYCQTYYGGSTTGWYVFGGGTEVVVK
notes: as for B1

- Kd [5]: 1.8 nM
- Kd [6]: 2.9 nM
- Kd [7]: 0.3 nM
- Kd [8]: 2.9 nM
- Kd [9]: 8.8 nM
- Kd [10]: 5.9 nM
- Kd [11]: 4.9 nM
B4: Rbt13B4 (antibody, V domains shown)
VH: QSVEESGGRLVTPGTPLTLTCTVSGFSLSSYAMGWVRQAPGKGLEWIGIINSYGNTYYANWAKGRFTISRTSTTVDLRMPSLTTEDTATYFCARDPGVSSNLWGPGTLVTVSS
VL: DVVMTQTPASVSEPVGGTVTIKCQASQNIYSGLAWYQQKPGQPPKLLIYGASKLASGVSSRFKGSGSGTEFTLTISDLECADAATYYCQATYYSSNSVAFGGGTEVVVK
notes: Recombinant rabbit monoclonal antibody, Expi293, protein A purified; also called Rb13B4

- Kd [5]: 13.9 nM
- Kd [1]: 8.5 nM
- Kd [6]: 18 nM
- Kd [2]: 8.5 nM
- Kd [7]: 16.7 nM
- Kd [8]: 18 nM
- Kd [9]: 92 nM
- Kd [3]: 11 nM
- Kd [4]: 2.2 nM
B5: Rbt12H4 (antibody, V domains shown)
VH: QSVEESGGRLVTPGTPLTVTCTVSGFSLSVYGMGWVRQAPGKGLEYIGFINNVGNTYYASWAKGRFTISKTSTTVDLKITSPTTEDTATYFCAKGGGGDWGYFNIWGPGTLVTVSL
VL: DVVMTQTPASVEAAVGGTVTIKCQASQSIGNALAWYQQKPGQRPKLLIYAASNLASGVPSRFAGSGSGTQFTLTISDLECADAATYYCQTYYAINRYGGAFGGGTEVVVK
notes: as for B1
